How the values were obtained:
purified protein [1] = substrate: C[C@@H](O)C(=O)O; experiment: purified protein; assay type: biochemical, Lactiplantibacillus plantarum; settings: PBS pH 7.4, 35°C, 2.13 µM enzyme, racemization to L-lactate
purified protein [2] = substrate: C[C@H](O)C(=O)O; experiment: purified protein; assay type: biochemical, Lactiplantibacillus plantarum; settings: PBS pH 7.4, 35°C, 2.13 µM enzyme, racemization to D-lactate

B1: LarALp (Lactiplantibacillus plantarum WCFS1) (protein)
chain: VAIDLPYDKRTITAQIDDENYAGKLVSQAATYHNKLSEQETVEKSLDNPIGSDKLEELARGKHNIVIISSDHTRPVPSHIITPILLRRLRSVAPDARIRILVATGFHRPSTHEELVNKYGEDIVNNEEIVMHVSTDDSSMVKIGQLPSGGDCIINKVAAEADLLISEGFIESHFFAGFSGGRKSVLPGIASYKTIMANHSGEFINSPKARTGNLMHNSIHKDMVYAARTAKLAFIINVVLDEDKKIIGSFAGDMEAAHKVGCDFVKELSSVPAIDCDIAISTNGGYPLDQNIYQAVKGMTAAEATNKEGGTIIMVAGARDGHGGEGFYHNLADVDDPKEFLDQAINTPRLKTIPDQWTAQIFARILVHHHVIFVSDLVDPDLITNMHMELAKTLDEAMEKAYAREGQAAKVTVIPDGLGVIVK
notes: co-expressed with L. plantarum LarB, LarC, LarE in E. coli BL21(DE3) (Duet, pAT035/pAT038)
For B1, the Km (purified protein [1]) was 23 ± 12 mM, the kcat (purified protein [1]) was 185 ± 12 s⁻¹ and the Km (purified protein [2]) was 32 ± 10 mM. It also gave a kcat (purified protein [2]) of 179 ± 25 s⁻¹.

From PMC11796402, “Overcoming barriers for investigating nickel-pincer nucleotide cofactor-related enzymes” (mBio, 2024)
